The RNAGym collection of RNA variant scans (doi:10.1073/pnas.2313332121)

B1: TPR t1 (parent)
chain: GACCAAUCUGCCCUCAGAGCUCGAGAACAUCUUCGGAUGCAGAGGAGGCAGGCUUCGGUGGCGCGAUAGCGCCAACGUCCUCAACCUCCAAUGCAUCCCACCACAUGAUGAUGCCUGAAGAGCCUUGGUUUUUUG

Variants of: B1
Experiment: polymerase ribozyme fitness, log enrichment relative to wild type (log ratio); higher = more active; in vitro selection for triplet polymerase activity
Procedure, shortened: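 Only genotypes with ≥10 input reads and ≥1 read per output were kept after Illumina sequencing of input and output libraries. These libraries were PCR-built, transcribed mutants of each subunit of a heterodimeric triplet polymerase ribozyme, each put through one triplicate in vitro selection round with frozen incubation at −7 °C, gel excision of extended constructs, streptavidin-bead capture and RT-PCR. Fitness is a logarithmic ratio of genotype enrichment to wild-type enrichment, from inverse-variance-weighted replicate averages, with the logarithm in base 2.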
For GACCAAUCUGCCCUCAGAGCUCGAGAACAUCUUCGGAUGCAGAGGAGGCAGGUUUCGGUGGAGCGAUAGCGCCAACGCCCUCAACCUCCAAUGCAUCCCACCACAUGAUGAUGCCUGAAGAGCCUUGGUUUUUUG, the “polymerase ribozyme fitness (log ratio)” value was -1.46. In the case of GACCAAUCUGCCCUCAGAGCUCGAGAACAUCUUCGGAUGCAGAGGAGGCAGGGUUCGGUGGCGCGAUAGCGCCAACGUCCUCAACCUCCAAUGCAUUCCACCAAAUGAUGAUGCCUGGAGAGCCUUGGUUUUUUG, the “polymerase ribozyme fitness (log ratio)” value is reported as -3.19. With GACCAAUCUGCCCUCAGAGCUCGAGAACAUCUUCGGAUGCAGAGGAGGCAGGGUUCGGUGGCGCGAUAGCGCCAACGUCCUCAACCUCCAAUGCAUCCCACCACAUGAUGAUGACUGAAGAGCCCUGGUUUUUUG the “polymerase ribozyme fitness (log ratio)” value was -2.07. In the case of GACCAAUCUGCCCUCAGAGCUCGAGAACAUCUUCGGAUGCAGAGGAGGCAGGGUUCGGUGGCGCGAUAGAGCCAACGUCCUCAACCUCCAAUGCAUCCCACCACAUGAUGAUGCCUGAAGAGCCUUGGUUUUUUG, the “polymerase ribozyme fitness (log ratio)” value is reported as -3.68. In the case of GACCAAUCUGCCCUCAGAGCUCGAGAACAUCUUCGGAUGCAGAGGAGGCAGGGUUCGGUGGCGCGAUAGCGCCAACGUCGUCAACCUCCAAUGCAUCCCACCACAUGAUGAUGCAUGAAGAGCCUUGGUUUUUUG, the “polymerase ribozyme fitness (log ratio)” value is reported as -2.69. In the case of GACCAAUCUGCCCUCAGAGCUCGAGAACAUCUUCGGAUGCAGAGGAGGCAGGGUUCGGUGGCGCGAUAGCGCCAACGUCCUCAACCUCCAAUGCAUCCCACCACAUGAUGAUGCCUGAAUAGCCUUGGUUUUUUG, the “polymerase ribozyme fitness (log ratio)” value is reported as -0.149. For GACCAAUCUGCCCUCAGAGCUCGAGAACAUCUUCGGAUGCAGAGGAGGCAGGGUUCGGUGGCGCGAUAGCGCCAACGUCCUCAACCUCCAAUGCAUCCUACCACAUGAUGAUGCCUGAAGAGCCUUGGUUUUUUG, the “polymerase ribozyme fitness (log ratio)” value was -3.54. In the case of GACCAAUCUGCCCUCAGAGCUCGAGAACAUCUUCGGAUGCAGAGGAGGCAGGGUUCGGUGGCGCGAUAGCGCCAACGUCCUCAACAUCCAAUGCAUCCCACCACAUGAUGAUGCCUGGAGAGCCUUGGUUUUUUG, the “polymerase ribozyme fitness (log ratio)” value is reported as -1.38. In the case of GACCAAUCUGCCCUCAGAGCUCGAGAACAUCUUCGGAUGCAGAGGAGGCAGGUUUUGGUGGCGCGAUAGCGCCAACGUCCUCAACCUCAAAUGCAUCCCACCACAUGAUGAUGCCUGAAAAGCCUUGGUUUUUUG, the “polymerase ribozyme fitness (log ratio)” value is reported as -1.49. In the case of GACCAAUCUGCCCUCAGAGCUCGAGAACAUCUUCGGAUGCAGAGGAGGCAGGGCUCGGUGGCGCGAUAGCGCCAACGUCCUCAACCUCCAAUGCAUCCCACCACAUGAUGAUGCCUGAAGCGCCUUGGUUUUUUG, the “polymerase ribozyme fitness (log ratio)” value is reported as 1.78. In the case of GACCAAUCUGCCCUCAGAGCUCGAGAACAUCUUCGGAUGCAGAGGAGGCAGGUUUCGGUGGCGCGAUAGCGCCCACGUCCUCAACCUCCAAUGCAUCCCACCACAUGAUGAUGCCUGAAGAGCCUUGGUUUUUUG, the “polymerase ribozyme fitness (log ratio)” value is reported as -0.315. For GACCAAUCUGCCCUCAGAGCUCGAGAACAUCUUCGGAUGCAGAGGAGGCAGGGUUCGGUGGCGCGAUAGCGCCAACGUCCUCAACCUCCAAGGCAUCCCACCACUUGAUGAUGCCUGAAGAGCCUUGGUUUUUUG, the “polymerase ribozyme fitness (log ratio)” value was -6.44. With GACCAAUCUGCCCUCAGAGCUCGAGAACAUCUUCGGAUGCAGAGGAGGCAGGGUUCGGUGGCGCGAUAGCGCCAACGUCCUCAACCUCCAAUGCAUCCCACCACAUGAUGAUGGCUGAAGAGCCUUGGUUUUUUG the “polymerase ribozyme fitness (log ratio)” value was -3.08. With GACCAAUCUGCCCUCAGAGCUCGAGAACAUCUUCGGAUGCAGAGGAGGCAGGGUUCGGUGGCGCGAUAGCGCCAACGUCCUCAACCUCCAAUGCAUCCCACCACAUGAUGAUGCCUGAAGAGCCUUGGUAUUUUG the “polymerase ribozyme fitness (log ratio)” value was -0.508. For GACCAAUCUGCCCUCAGAGCUCGAGAACAUCUUCGGAUGCAGAGGAGGCAGGUUUCGGUGGCGCGGUAGCGCCAACGUCCUCAACCUCCAAUGCAUCCCACCACAUGAUGAAGCCUGAAGAGCCUUGGUUUUUUG, the “polymerase ribozyme fitness (log ratio)” value was -0.539. In the case of GACCAAUCUGCCCUCAGAGCUCGAGAACAUCUUCGGAUGCAGAGGAGGCAGGUUUUGGUGGCGCGAUAGCGCCAACGUCCUCAACCUCCAUUGCAUCCCACCACAUGAUGAUGCCUGAAGAGCCUUGGUUUUUUG, the “polymerase ribozyme fitness (log ratio)” value is reported as -1.65. For GACCAAUCUGCCCUCAGAGCUCGAGAACAUCUUCGGAUGCAGAGGAGGCAGGUUUCGGUGGCGUGAUAGCGCCAACGUCCUCAACCUCCAAUUCAUCCCACCACAUGAUGAUGCCUGAAGAGCCUUGGUUUUUUG, the “polymerase ribozyme fitness (log ratio)” value was -1.53. With GACCAAUCUGCCCUCAGAGCUCGAGAACAUCUUCGGAUGCAGAGGAGGCAGGGUUCGGUGGUGCGAUAGCGCCAACGUCCUCAACCUCCAAUGCAUCCCACCACAUGAUGAUGCCUGAUGAGCCUUGGUUUUUUG the “polymerase ribozyme fitness (log ratio)” value was -0.561. For GACCAAUCUGCCCUCAGAGCUCGAGAACAUCUUCGGAUGCAGAGGAGGCAGGGUUCGGUGGCGCGAUAGCGCCAACGUCCUCAACCUCCAAUGCAUCCCAGCACAUGAUGAUGCCUGAAGAGCCUUGGUUUUUUG, the “polymerase ribozyme fitness (log ratio)” value was -1.65. For GACCAAUCUGCCCUCAGAGCUCGAGAACAUCUUCGGAUGCAGAGGAGGCAGGGUUCGGUGGCGCGAUAGCGCCAACGUCCUCAACCUCCAAUGCAUCCCACCACAUGAUGAUACCUGAAGAGCCUUGGUUUUUUG, the “polymerase ribozyme fitness (log ratio)” value was -1.24. With GACCAAUCUGCCCUCAGAGCUCGAGAACAUCUUCGGAUGCAGAGGAGGCAGGGUUCGGUGGCGCGAUAGCGCCAACGUCCUCAACCUCCAAUGCAUCCCACCACAUGAUGAUGUCUGAAGAGCCUUCGUUUUUUG the “polymerase ribozyme fitness (log ratio)” value was -2.8. In the case of GACCAAUCUGCCCUCAGAGCUCGAGAACAUCUUCGGAUGCAGAGGAGGCAGGGUUCGGUGGCGCGAUAGCGCCAACGUCCUCAACCUCCAAUGCAUCCCACCACAUGAUGAUGCCUGAAGAGACUUGGUUUUUUG, the “polymerase ribozyme fitness (log ratio)” value is reported as 0.261. In the case of GACCAAUCUGCCCUCAGAGCUCGAGAACAUCUUCGGAUGCAGAGGAGGCAGGUUUAGGUGGCGCGAUAGCGCCAACGUCCUCAACCUCCAAUGCAUCCCACCACAUGAUGAUGCCUGAAGAGCCUUGGUUUUUUG, the “polymerase ribozyme fitness (log ratio)” value is reported as -0.566. For GACCAAUCUGCCCUCAGAGCUCGAGAACAUCUUCGGAUGCAGAGGAGGCAGGGUUCGGUGGCGCGAUAGCGCCAACGUCCUCAACCUCCAAUGCAUCCCACCACAUGAUGAAGCCUGAAGAGCCUUGGUUUUUUG, the “polymerase ribozyme fitness (log ratio)” value was 0.666. For GACCAAUCUGCCCUCAGAGCUCGAGAACAUCUUCGGAUGCAGAGGAGGCAGGGUUCGGUGGCGCGAUAGCGCCAACGUCCUCAACCUCCAAUGCAUCCCACCACAUGAUGAUGCCUAAAGAGCCUUGGUCUUUUG, the “polymerase ribozyme fitness (log ratio)” value was -1.46. In the case of GACCAAUCUGCCCUCAGAGCUCGAGAACAUCUUCGGAUGCAGAGGAGGCAGGGUUCGGUGGCGCGAUAGCGCCAACGUCCUCAACCUCCAAAGCAUCCCACCACAUGAUGAUGCCUGAAGAGCCUUGGUUUUUUG, the “polymerase ribozyme fitness (log ratio)” value is reported as -3.48. In the case of GACCAAUCUGCCCUCAGAGCUCGAGAACAUCUUCGGAUGCAGAGGAGGCAGGGUUCGGUGGCGCGAUAGCGCCAACCUCCUCAACCUCCAAUGCAUCCCACCACAUGAUGAUGCCUGAAGAGCCUUGGUUUUUUG, the “polymerase ribozyme fitness (log ratio)” value is reported as -0.807. In the case of GACCAAUCUGCCCUCAGAGCUCGAGAACAUCUUCGGAUGCAGAGGAGGCAGGGUUCGGUGGCGCGAUAGCGCCAACGUCCUCAACAUCCAAUGCAUCCCACCACAUGAUGAUGCCUGAAGAGCCUUGGUUUUUUG, the “polymerase ribozyme fitness (log ratio)” value is reported as -1.75. For GACCAAUCUGCCCUCAGAGCUCGAGAACAUCUUCGGAUGCAGAGGAGGCAGGGUUCGGUCGCGCGAUAGCGCCAACGUCCUCAACCUCCAAUGCAUCACACAACAUGAUGAUGCCUGAAGAGCCUUGGUUUUUUG, the “polymerase ribozyme fitness (log ratio)” value was -6.1. With GACCAAUCUGCCCUCAGAGCUCGAGAACAUCUUCGGAUGCAGAGGAGGCAGGGUUCGGUGGCGCGAUAGCGCUAACGUCCUCAACCUCCAAUGCAUCCCACCACAUGAUGAUCCCUGAAGCGCCUUGGUUUUUUG the “polymerase ribozyme fitness (log ratio)” value was -2.12. For GACCAAUCUGCCCUCAGAGCUCGAGAACAUCUUCGGAUGCAGAGGAGGCAGGGUUCGGUGGCGCGAUAGCGCCAACGUACUCAACCUCCAAUGCAUCCCACCACAUGAUGAUGCCUGAACAGCCUUGGUUUUAUG, the “polymerase ribozyme fitness (log ratio)” value was -4.39. For GACCAAUCUGCCCUCAGAGCUCGAGAACAUCUUCGGAUGCAGAGGAGGCAGGGUUCGGUGGCGCGAUAGCGCCAACGCCCCCAACCUCCAAUGCAUCCCACCACAAGAUGAUGCCUGAAGAGCCUUGGUUUUUUG, the “polymerase ribozyme fitness (log ratio)” value was -3.38. For GACCAAUCUGCCCUCAGAGCUCGAGAACAUCUUCGGAUGCAGAGGAGGCAGGGUUCGGUGGCGCGAUAGCGCCAACGCCCUUAACCUCCAAUGCAUCCCACCACAUGAUGAUGCCUGAAAAGCCUUGGUUUUUUG, the “polymerase ribozyme fitness (log ratio)” value was 0.0778. In the case of GACCAAUCUGCCCUCAGAGCUCGAGAACAUCUUCGGAUGCAGAGGAGGCAGGGUUCGGUGGCGCGAUAGCGCCAACGUCCUCAACCUCCAAUGCAUCCCACCACAGGAUGAUGCCUGAAGAGCCUUGGUUUUUUG, the “polymerase ribozyme fitness (log ratio)” value is reported as -2.14. With GACCAAUCUGCCCUCAGAGCUCGAGAACAUCUUCGGAUGCAGAGGAGGCAGGGUUCGGUGGCGCGAUACCGCCAACGUCCUCAACCUCCAAUGCAUCCCACCACAUGAUGAUGCCUGAAGAGCCUUGGUUUUUUG the “polymerase ribozyme fitness (log ratio)” value was -0.98. In the case of GACCAAUCUGCCCUCAGAGCUCGAGAACAUCUUCGGAUGCAGAGGAGGCAGGUUUCGGUGGUGCGAUAGCGCCAACGUCCUCAACCUCCAAUGCAUCCCACCACAUGAUGAUGCCUGAAGAGCCUUGGUUUUUUG, the “polymerase ribozyme fitness (log ratio)” value is reported as -1.01. In the case of GACCAAUCUGCCCUCAGAGCUCGAGAACAUCUUCGGAUGCAGAGGAGGCAGGGUUCGGUGGCGCGAUAGCGCCAACGUCCUCAACCUCCAAUGCAUCCCACCACAUGAUGAUGCGUGAAGAGCCUUGGUUUUUUG, the “polymerase ribozyme fitness (log ratio)” value is reported as -1.44. In the case of GACCAAUCUGCCCUCAGAGCUCGAGAACAUCUUCGGAUGCAGAGGAGGCAGGGUUCGGUGGCGCGAUAGCGCCAACGUCCUCAACCUCCAAUGCAUCCCACCACAUGAUGAUGCCUCAAGAGCCUUGGUUUUUUG, the “polymerase ribozyme fitness (log ratio)” value is reported as -3.47. For GACCAAUCUGCCCUCAGAGCUCGAGAACAUCUUCGGAUGCAGAGGAGGCAGGUUUCGGUGGCGCGAUAGCGCCAACGUCCUCCACCCCCAAUGCAUCCCACCACAUGAUGAUGCCUGAAGAGCCUUGGUUUUUUG, the “polymerase ribozyme fitness (log ratio)” value was 0.394. With GACCAAUCUGCCCUCAGAGCUCGAGAACAUCUUCGGAUGCAGAGGAGGCAGGGUUCGGUGGCGCGAUAGCUCCAACGUCCUCAACCUCCAAUGCAUCCCACCACAUGAUGAUGCCUGAAGAGCCUUGGUUUUUUG the “polymerase ribozyme fitness (log ratio)” value was -0.129. With GACCAAUCUGCCCUCAGAGCUCGAGAACAUCUUCGGAUGCAGAGGAGGCAGGGUUCGGUGGCGCGAUAGCGCCAACGUCCUCAACCUCCAAUGCAUCCCACCACAUGAUGAUGCCUGAAGAGCUUUGGAUUUUUG the “polymerase ribozyme fitness (log ratio)” value was -0.596. For GACCAAUCUGCCCUCAGAGCUCGAGAACAUCUUCGGAUGCAGAGGAGGCAGGGUUCGGUGGCGCGAUAGCGACAACGUCCUGAACCUCCAAUGCAUCCCACCACAUGAUGAUGCCUGAAGAGCCUUGGUUUUUUG, the “polymerase ribozyme fitness (log ratio)” value was -0.867.
